# B1: Wnt8a: Wnt polypeptide (protein, UniProt Q9H1J5 25-351, looked up)
# Protein Wnt-8a: VNNFLITGPKAYLTYTTSVALGAQSGIEECKFQFAWERWNCPENALQLSTHNRLRSATRETSFIHAISSAGVMYIITKNCSMGDFENCGCDGSNNGKTGGHGWIWGGCSDNVEFGERISKLFVDSLEKGKDARALMNLHNNRAGRLAVRATMKRTCKCHGISGSCSIQTCWLQLAEFREMGDYLKAKYDQALKIEMDKRQLRAGNSAEGHWVPAEAFLPSAEAELIFLEESPDYCTCNSSLGIYGTEGRECLQNSHNTSRWERRSCGRLCTECGLQVEERKTEVISSCNCKFQWCCTVKCDQCRHVVSKYYCARSPGSAQSLGKGSA
# B2: Wnt7a: Wnt polypeptide (protein, UniProt O00755 32-349, looked up)
# Protein Wnt-7a: LGASIICNKIPGLAPRQRAICQSRPDAIIVIGEGSQMGLDECQFQFRNGRWNCSALGERTVFGKELKVGSREAAFTYAIIAAGVAHAITAACTQGNLSDCGCDKEKQGQYHRDEGWKWGGCSADIRYGIGFAKVFVDAREIKQNARTLMNLHNNEAGRKILEENMKLECKCHGVSGSCTTKTCWTTLPQFRELGYVLKDKYNEAVHVEPVRASRNKRPTFLKIKKPLSYRKPMDTDLVYIEKSPNYCEEDPVTGSVGTQGRACNKTAPQASGCDLMCCGRGYNTHQYARVWQCNCKFHWCCYVKCNTCSERTEMYTCK
# B3: Wnt8b: Wnt polypeptide (protein, UniProt Q93098 23-351, looked up)
# Protein Wnt-8b: WSVNNFLMTGPKAYLIYSSSVAAGAQSGIEECKYQFAWDRWNCPERALQLSSHGGLRSANRETAFVHAISSAGVMYTLTRNCSLGDFDNCGCDDSRNGQLGGQGWLWGGCSDNVGFGEAISKQFVDALETGQDARAAMNLHNNEAGRKAVKGTMKRTCKCHGVSGSCTTQTCWLQLPEFREVGAHLKEKYHAALKVDLLQGAGNSAAGRGAIADTFRSISTRELVHLEDSPDYCLENKTLGLLGTEGRECLRRGRALGRWERRSCRRLCGDCGLAVEERRAETVSSCNCKFHWCCAVRCEQCRRRVTKYFCSRAERPRGGAAHKPGRKP
# B4: Wnt5A: recombinant mouse Wnt5A (Catalog# 645-WN/CF) (protein, UniProt P22725 62-380, looked up)
# Protein Wnt-5a: IIGAQPLCSQLAGLSQGQKKLCHLYQDHMQYIGEGAKTGIKECQYQFRHRRWNCSTVDNTSVFGRVMQIGSRETAFTYAVSAAGVVNAMSRACREGELSTCGCSRAARPKDLPRDWLWGGCGDNIDYGYRFAKEFVDARERERIHAKGSYESARILMNLHNNEAGRRTVYNLADVACKCHGVSGSCSLKTCWLQLADFRKVGDALKEKYDSAAAMRLNSRGKLVQVNSRFNSPTTQDLVYIDPSPDYCVRNESTGSLGTQGRLCNKTSEGMDGCELMCCGRGYDQFKTVQTERCHCKFHWCCYVKCKKCTEIVDQFVCK
# B5: FRP2: Wnt inhibitor, secreted frizzled-related protein class (protein, UniProt Q96HF1 25-295, looked up)
# Secreted frizzled-related …: LFLFGQPDFSYKRSNCKPIPANLQLCHGIEYQNMRLPNLLGHETMKEVLEQAGAWIPLVMKQCHPDTKKFLCSLFAPVCLDDLDETIQPCHSLCVQVKDRCAPVMSAFGFPWPDMLECDRFPQDNDLCIPLASSDHLLPATEEAPKVCEACKNKNDDDNDIMETLCKNDFALKIKVKEITYINRDTKIILETKSKTIYKLNGVSERDLKKSVLWLKDSLQCTCEEMNDINAPYLVMGQKQGGELVITSVKRWQKGQREFKRISRSIRKLQC
# B6: Wnt6: Wnt polypeptide (protein, UniProt Q9Y6F9 25-365, looked up)
# Protein Wnt-6: LWWAVGSPLVMDPTSICRKARRLAGRQAELCQAEPEVVAELARGARLGVRECQFQFRFRRWNCSSHSKAFGRILQQDIRETAFVFAITAAGASHAVTQACSMGELLQCGCQAPRGRAPPRPSGLPGTPGPPGPAGSPEGSAAWEWGGCGDDVDFGDEKSRLFMDARHKRGRGDIRALVQLHNNEAGRLAVRSHTRTECKCHGLSGSCALRTCWQKLPPFREVGARLLERFHGASRVMGTNDGKALLPAVRTLKPPGRADLLYAADSPDFCAPNRRTGSPGTRGRACNSSAPDLSGCDLLCCGRGHRQESVQLEENCLCRFHWCCVVQCHRCRVRKELSLCL
# Legend:
# [1] = system: neonatal rat cardiomyocytes; test: Hypertrophic response: ANF and tropomyosin immunocytochemistry in neonatal rat cardiomyocytes; details: Wnt3A 150 ng/ml, phenylephrine as hypertrophic stimulus
# Description: Briefly, neonatal rat cardiomyocytes were treated with serum or phenylephrine (two agents known to induce hypertrophy), or were treated with 150 ng/ml recombinant Wnt3A. Following treatment, the cells were analyzed by immunocytochemistry for expression of atrial naturietic factor (ANF) (rabbit anti-ANF/Peninsula laboratories/Bachem) or expression of tropomyosin (CH1 antibody available from Developmental Hybridoma).
# beta-catenin = test: Nuclear beta-catenin assay in rat neonatal cardiomyocytes; assay type: cell-based; details: 16 hours, FIG. 23
# Source text: We have used a nuclear beta-catenin assay to readily identify Wnt-related polypeptides that promote Wnt signaling via the canonical Wnt signaling pathway in cardiac cells. Specifically, and by way of example, we conducted a nuclear beta-catenin assay in rat neonatal cardiomyocytes to identify Wnt-related polypeptides that promote Wnt signaling via the canonical Wnt signaling pathway in cardiomyocytes. Such an assay conducted in neonatal or adult cardiac cells including, but not limited to, cardiomyocytes can be used to identify candidate agents that are capable of promoting Wnt signaling via the canonical Wnt signaling pathway in cardiac cells.
# Briefly, neonatal cardiomyocytes were prepared and plated as outlined in detail above. Cells were washed two times with serum-free medium and were incubated in medium containing either a recombinant Wnt-related polypeptide, or some control factor. Cells were incubated for 16 hours, were fixed in 4% Formaldehye for 10 minuntes at room temperature, and were permeabilized with 0.2% Triton X-100 for 5 minutes. […] Although beta-catenin is not typically detectable by immunocytochemistry in the absence of active Wnt signaling, the nuclei were counterstained with 4′,6-diamidino-2-phenylindole (DAPI) to specifically confirm that the detected beta-catenin expression was localized to the nucleus. […]
# Neonatal cardiomyocytes were cultured under one of the following conditions: medium alone (negative control), 10 mM LiCl, 2% fetal calf serum (FCS), 10% fetal calf serum (FCS), 25 ng/ml recombinant mouse Wnt5A (Catalog# 645-WN/CF), 50 ng/ml recombinant mouse Wnt5A (Catalog# 645-WN/CF), 100 ng/ml recombinant mouse Wnt5A (Catalog# 645-WN/CF), 25 ng/ml recombinant mouse Wnt3A (Catalog # 1324-WN/CF), 50 ng/ml recombinant mouse Wnt3A (Catalog # 1324-WN/CF), or 100 ng/ml recombinant mouse Wnt3A (Catalog # 1324-WN/CF). Following culture under one of the foregoing conditions, cells were analyzed by immunocytochemistry for expression of beta-catenin protein, and nuclear localization was verified by counterstaining the cells with DAPI. […]
# [2] = system: neonatal rat cardiomyocytes; test: Neonatal rat cardiomyocyte proliferation, DNA synthesis by BrdU incorporation; assay type: cell-based; details: LiCl 10 mM, 5 mM or 2.5 mM, 48 hours; FIG. 22
# Description: Neonatal rat cardiomyocytes were isolated from postnatal day 2 Wistar rat pups. Rat pups were anesthetized by hypothermia in ice water for 10 min and euthanized by decapitation. Hearts were isolated and placed in PBS-G (KCl 2 g/L; KH2PO4 2 g/L; NaCl 80 g/L; Na2HPO4.7H20 21.6 g/L; D-glucose 10 g/L) on ice. The atria were removed and ventricles were washed in PBS-G and cut into pieces smaller than 2 millimeters. PBS-G containing 119.6 units/ml collagenase type 2 and 0.2 mg/ml pancreatin was warmed to 37° C. Amounts of collagenase were adjusted for batch variations in units/mg activity. Ventricles were dissociated in collagenase/pancreatin solution for 15 minutes on a rotator at 37° C. Tissue was dispersed gently by pipetting and allowed to settle for 5 min at room temperature. Cell suspension from first dissociation was discarded and replaced with fresh collagenase/pancreatin solution, and incubated at 37° C. for 15 minutes on an orbital shaker. Tissue was again dispersed and allowed to settle. The cell supension was transferred to a new tube and incubated an additional 5 min at 37° C., and the digestion was stopped by addition of an equal volume of DMEM/20% NCS and stored on ice. Digestion of the ventricular tissue was repeated 3 additional times and supernatants were collected and stored on ice in equal volumes of DMEM/20% NCS.
# Cells from all the fractions were collected at 200 RCF for 6 min at room temperature. Cell pellets were resuspended in 2 ml ADS buffer (6.8 g/L NaCl, 0.4 g/L KCl, 1.0 g/L D-glucose, 1.5 g/L NaH2PO4, 4.75 g/L HEPES, 0.1 MgSO4.7H2O). One ml of cell suspension was applied to two Percoll gradients set up in the following manner. The top Percoll gradient (density 1.059 g/ml) was generated by mixing Percoll stock with ADS buffer in a 9:11 ratio, and the bottom Percoll gradient (density 1.082 g/ml) was made by mixing Percoll stock and ADS buffer in a 13:7 ratio. Four ml Top Percoll was added to a 15 ml conical tube, and three ml Bottom Percoll was laid below it by placing a pipet tip at the bottom of the tube, then carefully withdrawing it as the solution was delivered. The gradients were centrifuged at 3000 rpm for 30 consecutive minutes at room temperature. Cardiac non-myocytes were located above the top percoll buffer while cardiac myocytes were located at the interface of the top and bottom percoll layers. Blood and undissociated tissue were found at the bottom of the tube. Cardiac myocytes were collected after the top percoll was aspirated, and resuspended in DMEM/10% FBS, then centrifuged at 200 RCF for 6 min. Pelleted myocytes were resuspended in plating medium containing DMEM with 25 mM HEPES, 5% horse serum, 4 mM glutamine, penicillin and streptomycin. Four volumes of DMEM/10% FBS were added and the cell suspension was passed through a 40 uM cell strainer. Cells were pre-plated in 10 cm tissue culture plates for 1 hour at 37° C. Unattached cells were collected from the medium and centrifuged at 200 RCF for 6 min. Pelleted myocytes were resuspended in plating medium containing 10 uM AraC at a density of 100000 cells/ml and 200 ul/well were distributed into 96 well plates which had previously been coated with 0.1% gelatin/12.5 ug/ml fibronectin at 37° C. for more than 4 hours. Plated cells were grown for at least 48 hours at 37° C. prior to use in further experiments.
# Briefly, the experiments summarized in FIG. 15 and FIG. 16 were conducted as follows. Neonatal rat cardiomyocytes were prepared and cultured as outlined in example 1. […]
# [3] = system: one or more non-cardiac cells types; details: cited from earlier work
# [4] = system: Wnt3A induced cardiomyocyte proliferation; test: Wnt antagonists co-administered with Wnt3A-L-cell supernatant, cardiomyocyte proliferation; assay type: cell-based, rat; details: 100 ng/ml of the Wnt inhibitor; FIG. 18
# Description: To confirm that Wnt3A was responsible for the stimulation of cardiomyocyte proliferation observed in FIG. 17, we co-administered supernatant from Wnt3A expressing mouse L-cells and the Wnt antagonist dkk (recombinant dkk obtained from R&D Systems).
# Nevertheless, the inhibition of Wnt3A induced cardiomyocyte proliferation by dkk supports the conclusion that Wnt3A is the active cardiomyocyte proliferative factor in the conditioned medium.
# The experiments were conducted and analyzed as detailed above in examples 2 and 3.
molecule,measurement,setting,value
CNC[C@H](O)c1cccc(O)c1 [phenylephrine],ANF expression increased,[1]; FIG. 20,increased
same,change in cardiomyocyte cell size and shape,[1]; FIG. 21,"vastly different cell shape, size, and morphology"
"[Cl-].[Li+] [LiCl, lithium chloride, reference compound]",beta-catenin nuclear localization (percentage of cells with nuclear beta-catenin staining),"beta-catenin; 10 mM LiCl, versus medium alone or 2% or 10% serum",promoted beta-catenin nuclear localization
same,cardiomyocyte proliferation,[2],promoted cardiomyocyte proliferation
B1,Wnt signaling pathway shown in one or more non-cardiac cell types,[3],signal via the canonical pathway
B2,Wnt signaling pathway shown in one or more non-cardiac cell types,[3],signal via the canonical pathway
B3,Wnt signaling pathway shown in one or more non-cardiac cell types,[3],signal via the canonical pathway
B4,Wnt signaling pathway shown in one or more non-cardiac cell types,[3],signal via the non-canonical signaling pathway
same,beta-catenin nuclear localization (percentage of cells with nuclear beta-catenin staining),beta-catenin; recombinant mouse Wnt protein 25 ng/ml-100 ng/ml,did not promote beta-catenin nuclear localization
B5,abolition of Wnt3A induced cardiomyocyte proliferation,[4],did not
B6,Wnt signaling pathway shown in one or more non-cardiac cell types,[3],signal via the canonical pathway
